Experimental data: patent publication US20090253131A1, “HYBRID FUSION REPORTER AND USES THEREOF” (Promega Corporation, priority 2007, published 2009)

Legend:
[1] = Binding of DhaA mutants to carboxytetramethylrhodamine chloroalkane substrate
Protocol: DhaA.H272 mutants, i.e. H272F/G/A/Q, bound to carboxytetramethylrhodamine-C10H21NO2—Cl.
A control mutant, DhaA.D106Q, single mutants DhaA.D106C, DhaA.D106Y, and DhaA.D106E, as well as double mutants DhaA.D106C:H272F, DhaA.D106E:H272F, DhaA.D106Q:H272F, and DhaA.D106Y:H272F were analyzed for binding to carboxytetramethylrhodamine-C10H21NO2—Cl. Carboxytetramethylrhodamine-C10H21NO2—Cl bound to DhaA.D106C, DhaA.D106C:H272F, DhaA.D106E, and DhaA.H272F. Thus, the bond formed between carboxytetramethylrhodamine-C10H21NO2—Cl and cysteine or glutamate at residue 106 in a mutant DhaA is stable relative to the bond formed between carboxytetramethylrhodamine-C10H21NO2—Cl and DhaA.WT. Other substitutions at position 106 alone or in combination with substitutions at other residues in DhaA may yield similar results. Further, certain substitutions at position 106 alone or in combination with substitutions at other residues in DhaA may result in a mutant DhaA that forms a bond with only certain substrates.

[2] = MagneGST-based labeling assay of DhaA mutants, biotin substrate; format: biochemical
Text: An automated MagneGST™-based assay was used to screen the DhaA mutant protein libraries. […] The hits identified by the initial primary screen were located in the master plates, consolidated, re-grown and reanalyzed using the MagneGST™ assay.
In order to distinguish these recombined protein mutants from the mutants identified in round one of screening (first generation), they are referred to as “second generation” DhaA mutants.

[3] = Fluorescence polarization (FP) labeling kinetics of purified DhaA mutants, TMR substrate; format: biochemical
Text: (§1) Fluorescence polarization (FP) is ideal for the study of small fluorescent ligands binding to proteins. It is unique among methods used to analyze molecular binding because it gives direct nearly instantaneous measure of a substrate bound/free ratio. Therefore, an FP assay was developed as an alternative approach to fluorimage gel analysis of the purified DhaA mutants.
(§2) Based on the sensitivity and truly homogenous nature of this assay, FP was used to characterize the labeling properties of the purified DhaA mutants with the fluorescently coupled substrates. The data from these studies was then used to calculate a second order rate constant for each DhaA mutant-substrate pair.

[4] = Kinetic labeling studies of purified DhaA mutants, fluorimage gel analysis; format: biochemical; details: fluorimaged gel, 10 ng protein, refined time-course
Protocol: Preliminary kinetic labeling studies were performed using several DhaA.H272F derived mutants. […] A more expanded time course analysis was performed on the DhaA.H272F A7 and the two second generation DhaA.H272F mutants A7YM and H11YL. […] The fluorescent bands on gel were quantitated and the relative rates of product formation determined. In order to determine a labeling rate, the concentration of the H11YL was reduced from 50 ng to 10 ng and a more refined time-course was performed. Under these labeling conditions a linear initial rate could be measured. Quantitation of the fluorimaged gel data allowed second order rate constants to be calculated.

[5] = molecular target: T1, rapamycin-mediated FRB/FKBP protein-protein interaction (Homo sapiens, UniProt P42345+P62942); assay: Protein complementation labeling (PCL) in vitro with HT2 fragments, rapamycin-mediated FRB/FKBP; format: biochemical; details: with or without 1 μM rapamycin, 0.1 μM TMR ligand 2 hours
T1 construct: made in house; host or cells: cell-free: RiboMax transcription, Wheat Germ Plus translation
T1 sequence (P42345 2012-2144 limits assumed): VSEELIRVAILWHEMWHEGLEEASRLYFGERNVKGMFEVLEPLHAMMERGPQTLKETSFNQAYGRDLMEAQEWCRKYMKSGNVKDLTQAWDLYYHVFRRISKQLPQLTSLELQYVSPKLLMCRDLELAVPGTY
T1 sequence (P62942 whole entry, the tested form may be a part): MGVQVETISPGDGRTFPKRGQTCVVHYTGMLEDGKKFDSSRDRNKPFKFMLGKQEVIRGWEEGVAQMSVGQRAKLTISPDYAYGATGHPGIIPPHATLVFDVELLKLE
Protocol: The rapamycin-mediated FRB/FKBP protein-protein interaction and a mutant DhaA were employed in a PCL. FRB and FKBP will only interact when rapamycin is present. Therefore, if PCL is successful, the reconstituted reporter is labeled only when the fusion proteins are incubated together in the presence of rapamycin.
Two pF9 (Kan) vectors were generated which contained either FRB or FKBP ORF plus the linker sequence (GlyGlyGlyGlySer)2 upstream of the SgfI/PmeI sites. A mutant DhaA gene (HT2) at positions corresponding to those useful to prepare Renilla luciferase fragments for PCS (see Example 2 and FIG. 7) with FRB-N-terminal and FKBP-C-terminal fusions. HT2 N- and C-termini halves were amplified using PCR primers and cloned into the SgfI/PmeI sites. PCL was performed in vitro by expressing each clone individually using RiboMax followed by Wheat Germ Plus reactions (HT2). Protein was expressed with or without FluoroTect™. FluoroTect™ labeling ensured that all proteins were expressed in approximately equal amounts (data not shown). Unlabeled proteins were then incubated alone or with the appropriated partner with or without 1 μM rapamycin. Ten μl of these products were then incubated with 0.1 μM of a TMR labeled ligand for the mutant dehalogenase, for 2 hours in the dark. […]

[6] = tested on: CHO cells; assay: Protein complementation labeling (PCL) with HT2 in transiently transfected CHO cells; format: cell-based; details: +/−1 μM rapamycin 2.5 hours, 1.0 μM HaloTag TMR ligand 1 hour
Protocol: For transient transfections, CHO cells were plated in a 6 well plate and transfected in duplicate using TransIT®-CHO. The next day, cells were incubated +/−1 μM rapamycin for 2.5 hours followed by 1.0 μM HaloTag® TMR ligand for 1 hour. Cells were washed in PBS, trypsinized, pelleted and mechanically lysed in 200 ul PBS with protease inhibitor and RQDNase I. Normalized amounts of proteins were microwaved for 30 seconds on high and run on a denaturing NuPAGE® gel.

[7] = FP
Text: as §1, §2

Molecule | binding to carboxytetramethylrhodamine-C10H21NO2—Cl [1] | improvement over the parental clones using the biotin-PEG4-14-Cl substrate [2] | other results
DhaA.D106C: DhaA with Asp106 replaced by Cys (protein, UniProt P0A3G2 1-293, looked up, variant D106C) Haloalkane dehalogenase: MSEIGTGFPFDPHYVEVLGERMHYVDVGPRDGTPVLFLHGNPTSSYLWRNIIPHVAPSHRCIAPDLIGMGKSDKPDLDYFFDDHVRYLDAFIEALGLEEVVLVIHCWGSALGFHWAKRNPERVKGIACMEFIRPIPTWDEWPEFARETFQAFRTADVGRELIIDQNAFIEGALPKCVVRPLTEVEMDHYREPFLKPVDREPLWRFPNELPIAGEPANIVALVEAYMNWLHQSPVPKLLFWGTPGVLIPPAEAARLAESLPNCKTVDIGPGLHYLQEDNPDLIGSEIARWLPAL | bound | – | –
DhaA.D106E: DhaA single mutant D106E (protein, UniProt P0A3G2 1-293, looked up, variant D106E) Haloalkane dehalogenase: MSEIGTGFPFDPHYVEVLGERMHYVDVGPRDGTPVLFLHGNPTSSYLWRNIIPHVAPSHRCIAPDLIGMGKSDKPDLDYFFDDHVRYLDAFIEALGLEEVVLVIHEWGSALGFHWAKRNPERVKGIACMEFIRPIPTWDEWPEFARETFQAFRTADVGRELIIDQNAFIEGALPKCVVRPLTEVEMDHYREPFLKPVDREPLWRFPNELPIAGEPANIVALVEAYMNWLHQSPVPKLLFWGTPGVLIPPAEAARLAESLPNCKTVDIGPGLHYLQEDNPDLIGSEIARWLPAL | bound | – | –
YC: DhaA.H272F based mutant Y273C (protein, UniProt P0A3G2 1-293, looked up, variant H272F Y273C) Haloalkane dehalogenase: MSEIGTGFPFDPHYVEVLGERMHYVDVGPRDGTPVLFLHGNPTSSYLWRNIIPHVAPSHRCIAPDLIGMGKSDKPDLDYFFDDHVRYLDAFIEALGLEEVVLVIHDWGSALGFHWAKRNPERVKGIACMEFIRPIPTWDEWPEFARETFQAFRTADVGRELIIDQNAFIEGALPKCVVRPLTEVEMDHYREPFLKPVDREPLWRFPNELPIAGEPANIVALVEAYMNWLHQSPVPKLLFWGTPGVLIPPAEAARLAESLPNCKTVDIGPGLFCLQEDNPDLIGSEIARWLPAL | – | significantly improved | –
YL: DhaA.H272F based mutant Y273L (protein, UniProt P0A3G2 1-293, looked up, variant H272F Y273L) Haloalkane dehalogenase: MSEIGTGFPFDPHYVEVLGERMHYVDVGPRDGTPVLFLHGNPTSSYLWRNIIPHVAPSHRCIAPDLIGMGKSDKPDLDYFFDDHVRYLDAFIEALGLEEVVLVIHDWGSALGFHWAKRNPERVKGIACMEFIRPIPTWDEWPEFARETFQAFRTADVGRELIIDQNAFIEGALPKCVVRPLTEVEMDHYREPFLKPVDREPLWRFPNELPIAGEPANIVALVEAYMNWLHQSPVPKLLFWGTPGVLIPPAEAARLAESLPNCKTVDIGPGLFLLQEDNPDLIGSEIARWLPAL | – | significantly improved | –
YM: DhaA.H272F based mutant Y273M (protein, UniProt P0A3G2 1-293, looked up, variant H272F Y273M) Haloalkane dehalogenase: MSEIGTGFPFDPHYVEVLGERMHYVDVGPRDGTPVLFLHGNPTSSYLWRNIIPHVAPSHRCIAPDLIGMGKSDKPDLDYFFDDHVRYLDAFIEALGLEEVVLVIHDWGSALGFHWAKRNPERVKGIACMEFIRPIPTWDEWPEFARETFQAFRTADVGRELIIDQNAFIEGALPKCVVRPLTEVEMDHYREPFLKPVDREPLWRFPNELPIAGEPANIVALVEAYMNWLHQSPVPKLLFWGTPGVLIPPAEAARLAESLPNCKTVDIGPGLFMLQEDNPDLIGSEIARWLPAL | – | significantly improved | –
DhaA.H272F: Rhodococcus rhodochrous dehalogenase DhaA with His272 replaced by Phe (protein, UniProt P0A3G2 1-293, looked up, variant H272F) Haloalkane dehalogenase: MSEIGTGFPFDPHYVEVLGERMHYVDVGPRDGTPVLFLHGNPTSSYLWRNIIPHVAPSHRCIAPDLIGMGKSDKPDLDYFFDDHVRYLDAFIEALGLEEVVLVIHDWGSALGFHWAKRNPERVKGIACMEFIRPIPTWDEWPEFARETFQAFRTADVGRELIIDQNAFIEGALPKCVVRPLTEVEMDHYREPFLKPVDREPLWRFPNELPIAGEPANIVALVEAYMNWLHQSPVPKLLFWGTPGVLIPPAEAARLAESLPNCKTVDIGPGLFYLQEDNPDLIGSEIARWLPAL | bound | – | fold more protein required in the reaction to obtain measurable rates ([3]; relative to DhaA.H272F H11YL): ~420 fold
DhaA.D106C:H272F: DhaA double mutant D106C and H272F (protein, UniProt P0A3G2 1-293, looked up, variant D106C H272F) Haloalkane dehalogenase: MSEIGTGFPFDPHYVEVLGERMHYVDVGPRDGTPVLFLHGNPTSSYLWRNIIPHVAPSHRCIAPDLIGMGKSDKPDLDYFFDDHVRYLDAFIEALGLEEVVLVIHCWGSALGFHWAKRNPERVKGIACMEFIRPIPTWDEWPEFARETFQAFRTADVGRELIIDQNAFIEGALPKCVVRPLTEVEMDHYREPFLKPVDREPLWRFPNELPIAGEPANIVALVEAYMNWLHQSPVPKLLFWGTPGVLIPPAEAARLAESLPNCKTVDIGPGLFYLQEDNPDLIGSEIARWLPAL | bound | – | –
H11YL: second generation DhaA.H272F mutant, H11 recombined with Y273L (SEQ ID NO:3) (protein, A synthetic mutant dehalogenase sequence) SEIGTGFPFDPHYVEVLGERMHYVDVGPRDGTPVLFLHGNPTSSYLWRNIIPHVAPSHRCIAPDLIGMGKSDKPDLDYFFDDHVRYLDAFIEALGLEEVVLVIHDWGSALGFHWAKRNPERVKGIACMEFIRPIPTWDEWPEFARETFQAFRTADVGRELIIDQNAFIEGALPMGVVRPLTEVEMDHYREPFLKPVDREPLWRFPNELPIAGEPANIVALVEAYMNWLHQSPVPKLLFWGTPGVLIPPAEAARLAESLPNCKTVDIGPGLFLLQEDNPDLIGSEIARWLPAL | – | – | second order rate constant for carboxytetramethylrhodamine-C10H21NO2—Cl labeling [4]: 500000 M⁻¹ s⁻¹; TMR labeling [5]: labeled; TMR labeling in CHO cells [6]: labeled irrespective of rapamycin addition; second order rate constant with carboxytetramethylrhodamine-C10H21NO2—Cl [3]: 2.2e+06 M⁻¹ s⁻¹; carboxyfluorescein-C10H21NO2—Cl labeling rate slower/lower than carboxytetramethylrhodamine-C10H21NO2—Cl labeling rate [7]: 100 fold
